The values below come from PMC4039371 (Molecular Systems Biology, 2013).

The target in this assay is T1, GST-Cdc14 (S. cerevisiae, UniProt Q00684 1-551).
T1 sequence (looked up): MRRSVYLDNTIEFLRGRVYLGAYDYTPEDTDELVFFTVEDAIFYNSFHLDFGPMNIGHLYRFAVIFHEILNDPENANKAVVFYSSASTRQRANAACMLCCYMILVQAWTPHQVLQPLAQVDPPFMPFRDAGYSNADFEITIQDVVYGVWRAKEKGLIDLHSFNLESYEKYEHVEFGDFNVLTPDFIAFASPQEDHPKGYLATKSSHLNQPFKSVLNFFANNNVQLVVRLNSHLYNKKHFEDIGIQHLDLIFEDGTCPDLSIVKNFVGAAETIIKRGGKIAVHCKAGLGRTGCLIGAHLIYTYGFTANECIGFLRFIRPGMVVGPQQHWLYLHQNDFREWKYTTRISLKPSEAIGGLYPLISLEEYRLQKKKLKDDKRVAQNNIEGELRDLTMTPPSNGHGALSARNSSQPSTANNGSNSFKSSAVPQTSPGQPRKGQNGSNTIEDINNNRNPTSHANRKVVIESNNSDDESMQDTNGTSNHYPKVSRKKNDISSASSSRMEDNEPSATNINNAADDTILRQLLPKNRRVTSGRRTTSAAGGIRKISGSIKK
In words: pull-down.

B1: recombinant Ubc9 protein (enzyme, S. cerevisiae, UniProt P50623 1-157, looked up)
chain: MSSLCLQRLQEERKKWRKDHPFGFYAKPVKKADGSMDLQKWEAGIPGKEGTNWAGGVYPITVEYPNEYPSKPPKVKFPAGFYHPNVYPSGTICLSILNEDQDWRPAITLKQIVLGVQDLLDSPNPNSPAQEPAWRSFSRNKAEYDKKVLLQAKQYSK
For B1, the binding result is recorded as “binds”.
